Laboratory results as given in the supplement of paper PMC10724198.
± gives the standard deviation of the averaged measurements.

Legend:
Saccharomyces cerevisiae [1] = assay: protein stability index of tFT-peptide fusion (C-terminal peptide) (PSI (0-1 scale)); higher = more stable (slower turnover); conditions: genetic background: wild type; temperature: 30 C
Saccharomyces cerevisiae [2] = assay: as above
Protocol: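 MPS profiling in S. cerevisiae of the tFT-X12 degron library: putative degron peptides plus stable controls, 12 aa, fused to the C-terminus of a sfGFP-mCherry timer. Cells are FACS-sorted into 8 mCherry/sfGFP bins and deep-sequenced. PSI runs from 0 (unstable) to 1 (stable). Backgrounds are wild type, das1Δ and doa10Δ at 30 °C, and wild type, das1Δ, cdc34-1 and cdc53-1 at 37 °C; 2-3 technical replicates each.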

[3] = genetic background: cdc34-1, temperature: 37 C
[4] = genetic background: cdc53-1, temperature: 37 C
[5] = genetic background: das1 deletion, temperature: 30 C
[6] = genetic background: das1 deletion, temperature: 37 C
[7] = genetic background: doa10 deletion, temperature: 30 C
[8] = genetic background: wild type, temperature: 30 C
[9] = genetic background: wild type, temperature: 37 C
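Note: PSI is a weighted mean of sequencing reads over stability bins, variants kept only with over 10 reads, mCherry proximal and sfGFP distal, peptide attached via GGGS linker.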

Sequence | protein stability index (Saccharomyces cerevisiae [1]) | protein stability index (Saccharomyces cerevisiae [2]; [3]) | protein stability index (Saccharomyces cerevisiae [2]; [4]) | protein stability index (Saccharomyces cerevisiae [2]; [5]) | protein stability index (Saccharomyces cerevisiae [2]; [6]) | protein stability index (Saccharomyces cerevisiae [2]; [7]) | protein stability index (Saccharomyces cerevisiae [2]; [8]) | protein stability index (Saccharomyces cerevisiae [2]; [9])
EVTRMLRVVREI | 0.456 ± 0.065 | 0.689 ± 0.035 | 0.761 ± 0.032 | 0.631 ± 0.026 | 0.768 ± 0.016 | 0.322 ± 0.0093 | 0.38 ± 0.032 | 0.588 ± 0.02
EWLITLRKCGVA | 0.463 ± 0.048 | 0.606 ± 0.03 | 0.613 ± 0.011 | 0.478 ± 0.026 | 0.6107 ± 0.006 | 0.397 ± 0.0075 | 0.423 ± 0.027 | 0.533 ± 0.006
EWRPYKRNKQSS | 0.353 ± 0.13 | 0.63 ± 0.011 | 0.759 ± 0.053 | 0.638 ± 0.028 | 0.755 ± 0.023 | 0.223 ± 0.016 | 0.211 ± 0.028 | 0.4112 ± 0.0037
EWVGIFRGVSVF | 0.371 ± 0.0074 | 0.2846 ± 0.0011 | 0.293 ± 0.0067 | 0.256 ± 0.032 | 0.4158 ± 0.003 | 0.224 ± 0.02 | 0.267 ± 0.022 | 0.374 ± 0.0073
FAKRVARVAREH | 0.33 ± 0.021 | 0.677 ± 0.052 | 0.725 ± 0.018 | 0.6452 ± 0.0051 | 0.726 ± 0.012 | 0.17 ± 0.024 | 0.219 ± 0.0058 | 0.383 ± 0.014
FALFLFFGPLIV | 0.4287 ± 0.0032 | 0.435 ± 0.066 | 0.486 ± 0.012 | 0.301 ± 0.056 | 0.52344 ± 0.00026 | 0.335 ± 0.019 | 0.331 ± 0.011 | 0.4857 ± 0.0017
FASFLFFCYIIF | 0.197 ± 0.0022 | 0.124 ± 0.042 | 0.118 ± 0.0078 | 0.192 ± 0.034 | 0.2631 ± 0.00071 | 0.24 ± 0.022 | 0.154 ± 0.04 | 0.213 ± 0.018
FCCFFPFLWRVF | 0.378 ± 0.018 | 0.593 ± 0.028 | 0.609 ± 0.034 | 0.541 ± 0.013 | 0.663 ± 0.017 | 0.317 ± 0.009 | 0.322 ± 0.016 | 0.455 ± 0.0052
FCFYLLFLGFTR | 0.431 ± 0.011 | 0.475 ± 0.035 | 0.512 ± 0.042 | 0.364 ± 0.027 | 0.546 ± 0.053 | 0.37 ± 0.01 | 0.324 ± 0.018 | 0.523 ± 0.029
FCLFFFPSLFFF | 0.371 ± 0.016 | 0.57 ± 0.11 | 0.538 ± 0.024 | 0.529 ± 0.042 | 0.604 ± 0.023 | 0.333 ± 0.012 | 0.295 ± 0.026 | 0.443 ± 0.017
FCRLCYLLLFCC | 0.254 ± 0.022 | 0.37 ± 0.044 | 0.414 ± 0.012 | 0.404 ± 0.025 | 0.531 ± 0.022 | 0.211 ± 0.0056 | 0.196 ± 0.016 | 0.20208 ± 0.0002
FELVWLCIIGAL | 0.173 ± 0.04 | 0.415 ± 0.012 | 0.507 ± 0.031 | 0.331 ± 0.031 | 0.516 ± 0.01 | 0.106 ± 0.0082 | 0.122 ± 0.019 | 0.2271 ± 0.0017
FFCFFWLFHWFG | 0.443 ± 0.028 | 0.512 ± 0.012 | 0.566 ± 0.022 | 0.485 ± 0.016 | 0.5875 ± 0.0025 | 0.4643 ± 0.0022 | 0.451 ± 0.015 | 0.5356 ± 0.0044
FFCSLIISRFLL | 0.214 ± 0.04 | 0.542 ± 0.035 | 0.608 ± 0.014 | 0.511 ± 0.018 | 0.62 ± 0.02 | 0.139 ± 0.012 | 0.168 ± 0.033 | 0.299 ± 0.0054
FFFFFIHFLCYF | 0.31 ± 0.035 | 0.239 ± 0.019 | 0.208 ± 0.0039 | 0.249 ± 0.034 | 0.383 ± 0.021 | 0.288 ± 0.0065 | 0.239 ± 0.047 | 0.357 ± 0.0053
FFFFFLLFFLRV | 0.303 ± 0.04 | 0.229 ± 0.027 | 0.247 ± 0.007 | 0.303 ± 0.046 | 0.343 ± 0.018 | 0.313 ± 0.005 | 0.233 ± 0.018 | 0.313 ± 0.0043
FFFFLVPVHCVI | 0.358 ± 0.02 | 0.261 ± 0.029 | 0.371 ± 0.028 | 0.261 ± 0.035 | 0.452 ± 0.021 | 0.239 ± 0.023 | 0.249 ± 0.024 | 0.406 ± 0.018

Sequence | protein stability index (Saccharomyces cerevisiae [1]) | protein stability index (Saccharomyces cerevisiae [2]; [3]) | protein stability index (Saccharomyces cerevisiae [2]; [4]) | protein stability index (Saccharomyces cerevisiae [2]; [5]) | protein stability index (Saccharomyces cerevisiae [2]; [6]) | protein stability index (Saccharomyces cerevisiae [2]; [7]) | protein stability index (Saccharomyces cerevisiae [2]; [8]) | protein stability index (Saccharomyces cerevisiae [2]; [9])
FFFFSVHLSFLD | 0.31 ± 0.013 | 0.122 ± 0.0052 | 0.295 ± 0.018 | 0.178 ± 0.04 | 0.365 ± 0.029 | 0.179 ± 0.0073 | 0.176 ± 0.028 | 0.305 ± 0.024
FFFLILFPLSYS | 0.49 ± 0.072 | 0.4518 ± 0.0042 | 0.526 ± 0.044 | 0.376 ± 0.028 | 0.5472 ± 0.0028 | 0.3517 ± 0.0033 | 0.372 ± 0.0098 | 0.513 ± 0.041
FFFLVRLCRLCV | 0.292 ± 0.055 | 0.478 ± 0.043 | 0.558 ± 0.02 | 0.46 ± 0.019 | 0.575 ± 0.025 | 0.266 ± 0.0098 | 0.261 ± 0.011 | 0.353 ± 0.0078
FFIMFFDFWGYF | 0.447 ± 0.079 | 0.378 ± 0.01 | 0.462 ± 0.021 | 0.335 ± 0.023 | 0.624 ± 0.075 | 0.319 ± 0.0034 | 0.373 ± 0.047 | 0.57 ± 0.028
FFLRFGLFLFTL | 0.421 ± 0.049 | 0.491 ± 0.0061 | 0.5109 ± 0.004 | 0.429 ± 0.017 | 0.564 ± 0.0091 | 0.4004 ± 0.0018 | 0.367 ± 0.05 | 0.4928 ± 0.0041
FFSCFFFSVLYR | 0.377 ± 0.035 | 0.2699 ± 0.00059 | 0.214 ± 0.018 | 0.302 ± 0.042 | 0.425 ± 0.031 | 0.469 ± 0.022 | 0.302 ± 0.029 | 0.384 ± 0.018
FFVYRFFSLSVC | 0.07222 ± 0.00031 | 0.146 ± 0.0021 | 0.209 ± 0.0047 | 0.13 ± 0.032 | 0.247 ± 0.0028 | 0.0301 ± 0.0028 | 0.0256 ± 0.0079 | 0.0647 ± 0.011
FGCCLYFCFWGL | 0.433 ± 0.005 | 0.455 ± 0.0063 | 0.519 ± 0.011 | 0.386 ± 0.026 | 0.524 ± 0.0085 | 0.3524 ± 0.0025 | 0.372 ± 0.018 | 0.491 ± 0.016
FHLVIYWCVRGP | 0.428 ± 0.034 | 0.337 ± 0.013 | 0.453 ± 0.088 | 0.299 ± 0.035 | 0.45 ± 0.0086 | 0.2623 ± 0.0021 | 0.281 ± 0.053 | 0.474 ± 0.034
FICYDRILTVYY | 0.454 ± 0.034 | 0.479 ± 0.0097 | 0.564 ± 0.045 | 0.394 ± 0.029 | 0.524 ± 0.026 | 0.369 ± 0.043 | 0.368 ± 0.024 | 0.489 ± 0.031
FIVVSFCFFLFF | 0.343 ± 0.067 | 0.331 ± 0.06 | 0.382 ± 0.0069 | 0.301 ± 0.023 | 0.4351 ± 0.0036 | 0.31 ± 0.03 | 0.263 ± 0.045 | 0.414 ± 0.013
FKFGVFDFRFLC | 0.109 ± 0.06 | 0.451 ± 0.063 | 0.686 ± 0.031 | 0.623 ± 0.011 | 0.7617 ± 0.0049 | 0.0716 ± 0.0051 | 0.0879 ± 0.036 | 0.115 ± 0.031
FLFFLFVVFVFV | 0.41 ± 0.07 | 0.256 ± 0.041 | 0.35 ± 0.046 | 0.305 ± 0.022 | 0.379 ± 0.0046 | 0.323 ± 0.015 | 0.286 ± 0.013 | 0.3692 ± 0.0023
FLFFRFLVGCCF | 0.3731 ± 0.003 | 0.406 ± 0.0083 | 0.396 ± 0.0095 | 0.339 ± 0.032 | 0.4545 ± 0.0039 | 0.29943 ± 0.00022 | 0.311 ± 0.0085 | 0.427 ± 0.017
FLIFFVCLFRWK | 0.328 ± 0.0066 | 0.185 ± 0.0059 | 0.243 ± 0.0062 | 0.231 ± 0.023 | 0.3191 ± 0.0023 | 0.21 ± 0.025 | 0.235 ± 0.029 | 0.301 ± 0.0041
FLLLDFMLVSLV | 0.483 ± 0.011 | 0.498 ± 0.015 | 0.5175 ± 0.0029 | 0.404 ± 0.022 | 0.543 ± 0.011 | 0.371 ± 0.029 | 0.412 ± 0.036 | 0.521 ± 0.037
